The text below walks through data of patent publication US20240091274A1.

In the test the target is Human CD52 (human) (UniProt P31358). Briefly: cell-based or functional assay.
Chain of Human CD52 (human) (P31358 25-61 limits assumed): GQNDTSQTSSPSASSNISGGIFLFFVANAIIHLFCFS

The substance alemtuzumab (antibody) showed a CDC killing of human HIP iECs (CD52) with ABO-matched allogeneic serum (XCelligence) of 0.001 µg/ml and a CDC killing of mouse B6 HIP iECs (CD52) with syngeneic B6 serum (XCelligence) of 0.0001 µg/mL.
